# Measurements taken from PMC6081378.
# Biological target: rHA1_(1-326), recombinant hemagglutinin HA1 fragment (residues 1-326) of influenza A virus H1N1 strain A/California/04/2009 (influenza A virus subtype H1N1 strain A/California/04/2009)
# Test: SEC
substance,measurement,value
"rHA1_(1-326), recombinant hemagglutinin HA1 fragment (residues 1-326) of influenza A virus H1N1 strain A/California/04/2009 (domain or fragment)",percent of the protein as dimers and trimers,70.5%
